Assay: 55Fe efflux after 10 µM hepcidin pretreatment, oocytes
Conditions: glycan lost; control: wild-type mouse Fpn

B1: mouse ferroportin (Fpn): N437D (protein)
parent chain: MTKARDQTHQEGCCGSLANYLTSAKFLLYLGHSLSTWGDRMWHFAVSVFLVELYGNSLLLTAVYGLVVAGSVLVLGAIIGDWVDKNARLKVAQTSLVVQNVSVILCGIILMMVFLHKNELLTMYHGWVLTVCYILIITIANIANLASTATAITIQRDWIVVVAGENRSRLADMNATIRRIDQLTNILAPMAVGQIMTFGSPVIGCGFISGWNLVSMCVEYFLLWKVYQKTPALAVKAALKVEESELKQLTSPKDTEPKPLEGTHLMGEKDSNIRELECEQEPTCASQMAEPFRTFRDGWVSYYNQPVFLAGMGLAFLYMTVLGFDCITTGYAYTQGLSGSILSILMGASAITGIMGTVAFTWLRRKCGLVRTGLFSGLAQLSCLILCVISVFMPGSPLDLSVSPFEDIRSRFVNVEPVSPTTKIPETVFTTEMHMSNMSNVHEMSTKPIPIVSVSLLFAGVIAARIGLWSFDLTVTQLLQENVIESERGIINGVQNSMNYLLDLLHFIMVILAPNPEAFGLLVLISVSFVAMGHLMYFRFAQKTLGNQIFVCGPDEKEVTDENQPNTSVV
other: hepcidin inhibition of transport: no change

From PMC7780100
